Test results published in the supplement of paper PMC5998384.

Columns and labels:
HeLa Kyoto [1] = experiment: solubility change mitosis vs G1/S (difference of NP-40 vs SDS log2 ratios) (log2 ratio difference); higher = more soluble in mitosis
HeLa Kyoto [2] = experiment: solubility in G1/S (NP-40 vs SDS abundance) (log2 ratio); higher = more soluble; conditions: cell cycle stage: G1/S
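Wherever solubility change mitosis vs G1/S (difference of NP-40 vs SDS log2 ratios) is given: synchronized HeLa Kyoto cells (double thymidine block for G1/S, nocodazole release for mitosis), protein amounts in NP-40 versus SDS lysates quantified by mass spectrometry, three biological replicates.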
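Wherever solubility in G1/S (NP-40 vs SDS abundance) is given: HeLa Kyoto cells arrested at G1/S by double thymidine block, proteins quantified by TMT10plex mass spectrometry in mild NP-40 versus SDS extracts, three biological replicates.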

Row | Sequence | solubility change mitosis (log2) (HeLa Kyoto [1]) | solubility in G1/S (log2) (HeLa Kyoto [2])
1 | MERVNDASCGPSGCYTYQVSRHSTEMLHNLNQQRKNGGRFCDVLLRVGDESFPAHRAVLAACSEYFESVFSAQLGDGGAADGGPADVGGATAAPGGGAGGSRELEMHTISSKVFGDILDFAYTSRIVVRLESFPELMTAAKFLLMRSVIEICQEVIKQSNVQILVPPARADIMLFRPPGTSDLGFPLDMTNGAALAANSNGIAGSMQPEEEAARAAGAAIAGQASLPVLPGVDRLPMVAGPLSPQLLTSPFPSVASSAPPLTGKRGRGRPRKANLLDSMFGSPGGLREAGILPCGLCGKVFTDANRLRQHEAQHGVTSLQLGYIDLPPPRLGENGLPISEDPDGPRKRSRTRKQVACEICGKIFRDVYHLNRHKLSHSGEKPYSCPVCGLRFKRKDRMSYHVRSHDGSVGKPYICQSCGKGFSRPDHLNGHIKQVHTSERPHKCQTCNASFATRDRLRSHLACHEDKVPCQVCGKYLRAAYMADHLKKHSEGPSNFCSICNRGFSSASYLKVHVKTHHGVPLPQVSRHQEPILNGGAAFHCARTYGNKEGQKCSHQDPIESSDSYGDLSDASDLKTPEKQSANGSFSCDMAVPKNKMESDGEKKYPCPECGSFFRSKSYLNKHIQKVHVRALGGPLGDLGPALGSPFSPQQNMSLLESFGFQIVQSAFASSLVDPEVDQQPMGPEGK [PATZ1] | 0.402 | -0.643
2 | MESTAYPLNLSLKEEEEEEEIQSRELEDGPADMQKVRICSEGGWVPALFDEVAIYFSDEEWEVLTEQQKALYREVMRMNYETVLSLEFPFPKPDMITRLEGEEESQNSDEWQLQGGTSAENEESDVKPPDWPNPMNATSQFPQPQHFDSFGLRLPRDITELPEWSEGYPFYMAMGFPGYDLSADDIAGKFQFSRGMRRSYDAGFKLMVVEYAESTNNCQAAKQFGVLEKNVRDWRKVKPQLQNAHAMRRAFRGPKNGRFALVDQRVAEYVRYMQAKGDPITREAMQLKALEIAQEMNIPEKGFKASLGWCRRMMRRYDLSLRHKVPVPQHLPEDLTEKLVTYQRSVLALRRAHDYEVAQMGNADETPICLEVPSRVTVDNQGEKPVLVKTPGREKLKITAMLGVLADGRKLPPYIILRGTYIPPGKFPSGMEIRCHRYGWMTEDLMQDWLEVVWRRRTGAVPKQRGMLILNGFRGHATDSVKNSMESMNTDMVIIPGGLTSQLQVLDVVVYKPLNDSVRAQYSNWLLAGNLALSPTGNAKKPPLGLFLEWVMVAWNSISSESIVQGFKKCHISSNLEEEDDVLWEIESELPGGGEPPKDCDTESMAESN [POGK] | -0.0638 | -0.0733
3 | MFNRAVSRLSRKRPPSDIHDSDGSSSSSHQSLKSTAKWAASLENLLEDPEGVKRFREFLKKEFSEENVLFWLACEDFKKMQDKTQMQEKAKEIYMTFLSSKASSQVNVEGQSRLNEKILEEPHPLMFQKLQDQIFNLMKYDSYSRFLKSDLFLKHKRTEEEEEDLPDAQTAAKRASRIYNT [RGS10] | 0.405 | 0.563
4 | MFRIEGLAPKLDPEEMKRKMREDVISSIRNFLIYVALLRVTPFILKKLDSI [TOMM5] | -0.172 | -0.518
5 | MGAVTDDEVIRKRLLIDGDGAGDDRRINLLVKSFIKWCNSGSQEEGYSQYQRMLSTLSQCEFSMGKTLLVYDMNLREMENYEKIYKEIECSIAGAHEKIAECKKQILQAKRIRKNRQEYDALAKVIQHHPDRHETLKELEALGKELEHLSHIKESVEDKLELRRKQFHVLLSTIHELQQTLENDEKLSEVEEAQEASMETDPKP [THOC7] | 0.387 | -0.022
6 | MGDAGSERSKAPSLPPRCPCGFWGSSKTMNLCSKCFADFQKKQPDDDSAPSTSNSQSDLFSEETTSDNNNTSITTPTLSPSQQPLPTELNVTSPSKEECGPCTDTAHVSLITPTKRSCGTDSQSENEASPVKRPRLLENTERSEETSRSKQKSRRRCFQCQTKLELVQQELGSCRCGYVFCMLHRLPEQHDCTFDHMGRGREEAIMKMVKLDRKVGRSCQRIGEGCS [ZFAND3] | -0.0341 | 0.216
7 | MGDNPFQPKSNSKMAELFMECEEEELEPWQKKVKEVEDDDDDEPIFVGEISSSKPAISNILNRVNPSSYSRGLKNGALSRGITAAFKPTSQHYTNPTSNPVPASPINFHPESRSSDSSVIVQPFSKPGYITNSSRVVSNKSSELLFDLTQDTGLSHYQGGPTLSMAGMSESSFLSKRPSTSEVNNVNPKKPKPSESVSGANSSAVLPSVKSPSVTSSQAMLAKGTNTSSNQSKNGTPFPRACPKCNIHFNLLDPLKNHMKYCCPDMINNFLGLAKTEFSSTVNKNTTIDSEKGKLIMLVNDFYYGKHEGDVQEEQKTHTTFKCFSCLKILKNNIRFMNHMKHHLELEKQSSESWENHTTCQHCYRQFPTPFQLQCHIESTHTPHEFSTICKICELSFETEHVLLQHMKDNHKPGEMPYVCQVCNYRSSSFSDVETHFRTSHENTKNLLCPFCLKVIKIATPYMHHYMKHQKKGIHRCTKCRLQFLTCKEKMDHKTQHHRTFIKPKQLEGLPPGTKVTIRASVGPLQSGASPTPSISASASTLQLSPPRTKNITAKNPAKSNTSKPNTVKSNASKPNTSKPNGSKSKYKPKISNMQKKQSTLASSNKKSKVNTALRNLRYRRGIHKCIECCSEIKDFANHFPTYVHCSFCRYNTSCSKAYVNHMMSFHSNRPSKRFCIFKKHSENLRGITLVCLNCDFLSDVSGLDNMATHLSQHKTHTCQVVMQKVSVCIPTSEHLSELKKEAPAKEQEPVSKEIARPNMAERETETSNSESKQDKAASSKEKNGCNANSFEGSSTTKSEESITVSDKENETCLADQETGSKNIVSCDSNIGADKVEKKKQIQHVCQEMELKMCQSSENIILSDQIKDHNSSEARFSSKNIKDLRLASDNVSIDQFLRKRHEPESVSSDVSEQGSIHLEPLTPSEVLEYEATEILQKGSGDPSAKTDEVVSDQTDDIPGGNNPSTTEATVDLEDEKERS [ZNF280D] | 0.447 | -0.86
8 | MGETKIIYHLDGQETPYLVKLPLPAERVTLADFKGVLQRPSYKFFFKSMDDDFGVVKEEISDDNAKLPCFNGRVVSWLVSAEGSHPDPAPFCADNPSELPPPMERTGGIGDSRPPSFHPHAGGGSQENLDNDTETDSLVSAQRERPRRRDGPEHATRLNGTAKGERRREPGGYDSSSTLMSSELETTSFFDSDEDDSTSRFSSSTEQSSASRLMRRHKRRRRKQKVSRIERSSSFSSITDSTMSLNIITVTLNMEKYNFLGISIVGQSNERGDGGIYIGSIMKGGAVAADGRIEPGDMLLQVNEINFENMSNDDAVRVLREIVHKPGPITLTVAKCWDPSPRGCFTLPRSEPIRPIDPAAWVSHTAAMTGTFPAYGMSPSLSTITSTSSSITSSIPDTERLDDFHLSIHSDMAAIVKAMASPESGLEVRDRMWLKITIPNAFIGSDVVDWLYHNVEGFTDRREARKYASNLLKAGFIRHTVNKITFSEQCYYIFGDLCGNMANLSLHDHDGSSGASDQDTLAPLPHPGAAPWPMAFPYQYPPPPHPYNPHPGFPELGYSYGGGSASSQHSEGSRSSGSNRSGSDRRKEKDPKAGDSKSGGSGSESDHTTRSSLRGPRERAPSERSGPAASEHSHRSHHSLASSLRSHHTHPSYGPPGVPPLYGPPMLMMPPPPAAMGPPGAPPGRDLASVPPELTASRQSFRMAMGNPSEFFVDVM [DVL3] | -0.17 | -0.0796
9 | MGHPPLEFSDCYLDSPDFRERLKCYEQELERTNKFIKDVIKDGNALISAMRNYSSAVQKFSQTLQSFQFDFIGDTLTDDEINIAESFKEFAELLNEVENERMMMVHNASDLLIKPLENFRKEQIGFTKERKKKFEKDGERFYSLLDRHLHLSSKKKESQLQEADLQVDKERHNFFESSLDYVYQIQEVQESKKFNIVEPVLAFLHSLFISNSLTVELTQDFLPYKQQLQLSLQNTRNHFSSTREEMEELKKRMKEAPQTCKLPGQPTIEGYLYTQEKWALGISWVKYYCQYEKETKTLTMTPMEQKPGAKQGPLDLTLKYCVRRKTESIDKRFCFDIETNERPGTITLQALSEANRRLWMEAMDGKEPIYHSPITKQQEMELNEVGFKFVRKCINIIETKGIKTEGLYRTVGSNIQVQKLLNAFFDPKCPGDVDFHNSDWDIKTITSSLKFYLRNLSEPVMTYRLHKELVSAAKSDNLDYRLGAIHSLVYKLPEKNREMLELLIRHLVNVCEHSKENLMTPSNMGVIFGPTLMRAQEDTVAAMMNIKFQNIVVEILIEHFGKIYLGPPEESAAPPVPPPRVTARRHKPITISKRLLRERTVFYTSSLDESEDEIQHQTPNGTITSSIEPPKPPQHPKLPIQRSGETDPGRKSPSRPILDGKLEPCPEVDVGKLVSRLQDGGTKITPKATNGPMPGSGPTKTPSFHIKRPAPRPLAHHKEGDADSFSKVRPPGEKPTIIRPPVRPPDPPCRAATPQKPEPKPDIVAGNAGEITSSVVASRTRFFETASRKTGSSQGRLPGDES [OPHN1] | -0.0995 | -0.348
10 | MGIQGLLQFIKEASEPIHVRKYKGQVVAVDTYCWLHKGAIACAEKLAKGEPTDRYVGFCMKFVNMLLSHGIKPILVFDGCTLPSKKEVERSRRERRQANLLKGKQLLREGKVSEARECFTRSINITHAMAHKVIKAARSQGVDCLVAPYEADAQLAYLNKAGIVQAIITEDSDLLAFGCKKVILKMDQFGNGLEIDQARLGMCRQLGDVFTEEKFRYMCILSGCDYLSSLRGIGLAKACKVLRLANNPDIVKVIKKIGHYLKMNITVPEDYINGFIRANNTFLYQLVFDPIKRKLIPLNAYEDDVDPETLSYAGQYVDDSIALQIALGNKDINTFEQIDDYNPDTAMPAHSRSHSWDDKTCQKSANVSSIWHRNYSPRPESGTVSDAPQLKENPSTVGVERVISTKGLNLPRKSSIVKRPRSAELSEDDLLSQYSLSFTKKTKKNSSEGNKSLSFSEVFVPDLVNGPTNKKSVSTPPRTRNKFATFLQRKNEESGAVVVPGTRSRFFCSSDSTDCVSNKVSIQPLDETAVTDKENNLHESEYGDQEGKRLVDTDVARNSSDDIPNNHIPGDHIPDKATVFTDEESYSFESSKFTRTISPPTLGTLRSCFSWSGGLGDFSRTPSPSPSTALQQFRRKSDSPTSLPENNMSDVSQLKSEESSDDESHPLREEACSSQSQESGEFSLQSSNASKLSQCSSKDSDSEESDCNIKLLDSQSDQTSKLRLSHFSKKDTPLRNKVPGLYKSSSADSLSTTKIKPLGPARASGLSKKPASIQKRKHHNAENKPGLQIKLNELWKNFGFKKDSEKLPPCKKPLSPVRDNIQLTPEAEEDIFNKPECGRVQRAIFQ [EXO1] | 0.136 | -0.442
11 | MGKVLSKIFGNKEMRILMLGLDAAGKTTILYKLKLGQSVTTIPTVGFNVETVTYKNVKFNVWDVGGQDKIRPLWRHYYTGTQGLIFVVDCADRDRIDEARQELHRIINDREMRDAIILIFANKQDLPDAMKPHEIQEKLGLTRIRDRNWYVQPSCATSGDGLYEGLTWLTSNYKS [ARF6] | 0.0647 | 0.0719
12 | MGLELYLDLLSQPCRAVYIFAKKNDIPFELRIVDLIKGQHLSDAFAQVNPLKKVPALKDGDFTLTESVAILLYLTRKYKVPDYWYPQDLQARARVDEYLAWQHTTLRRSCLRALWHKVMFPVFLGEPVSPQTLAATLAELDVTLQLLEDKFLQNKAFLTGPHISLADLVAITELMHPVGAGCQVFEGRPKLATWRQRVEAAVGEDLFQEAHEVILKAKDFPPADPTIKQKLMPWVLAMIR [GSTT1] | -0.295 | 0.038
